These results are taken from US20070065895.

Data set [1] addresses T1, GST-Glu1554-Arg1668-H.
T1 chain: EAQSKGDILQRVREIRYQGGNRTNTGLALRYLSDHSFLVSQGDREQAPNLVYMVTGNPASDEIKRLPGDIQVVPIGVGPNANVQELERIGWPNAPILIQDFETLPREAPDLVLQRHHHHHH

In data set [2] the target is T2, GST-Asp1459-Arg1668-H.
T2 chain: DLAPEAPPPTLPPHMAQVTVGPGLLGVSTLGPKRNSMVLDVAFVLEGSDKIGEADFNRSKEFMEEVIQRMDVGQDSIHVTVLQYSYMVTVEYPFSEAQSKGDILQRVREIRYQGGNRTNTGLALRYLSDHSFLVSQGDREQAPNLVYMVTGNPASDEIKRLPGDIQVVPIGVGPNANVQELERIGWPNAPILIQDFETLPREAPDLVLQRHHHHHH

The target in data set [3] is T3, GST-Asp1596-Arg1668-H.
T3 chain: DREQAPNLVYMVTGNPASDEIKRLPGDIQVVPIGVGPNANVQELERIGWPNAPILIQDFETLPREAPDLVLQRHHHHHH

Data set [4] concerns the target T4, GST-Asp1587-Arg1668-H.
T4 chain: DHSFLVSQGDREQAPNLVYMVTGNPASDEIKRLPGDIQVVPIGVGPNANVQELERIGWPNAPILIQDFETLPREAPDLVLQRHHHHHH

Data set [5] addresses T5, GST-Asp1596-Arg1659-H.
T5 chain: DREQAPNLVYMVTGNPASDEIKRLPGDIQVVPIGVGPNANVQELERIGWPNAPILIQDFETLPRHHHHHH

B1: ADAMTS-13 (von Willebrand factor cleaving enzyme), as present in normal plasma (protein)
chain: AAGGILHLELLVAVGPDVFQAHQEDTERYVLTNLNIGAELLRDPSLGAQFRVHLVKMVILTEPEGAPNITANLTSSLLSVCGWSQTINPEDDTDPGHADLVLYITRFDLELPDGNRQVRGVTQLGGACSPTWSCLITEDTGFDLGVTIAHEIGHSFGLEHDGAPGSGCGPSGHVMASDGAAPRAGLAWSPCSRRQLLSLLSAGRARCVWDPPRPQPGSAGHPPDAQPGLYYSANEQCRVAFGPKAVACTFAREHLDMCQALSCHTDPLDQSSCSRLLVPLLDGTECGVEKWCSKGRCRSLVELTPIAAVHGRWSSWGPRSPCSRSCGGGVVTRRRQCNNPRPAFGGRACVGADLQAEMCNTQACEKTQLEFMSQQCARTDGQPLRSSPGGASFYHWGAAVPHSQGDALCRHMCRAIGESFIMKRGDSFLDGTRCMPSGPREDGTLSLCVSGSCRTFGCDGRMDSQQVWDRCQVCGGDNSTCSPRKGSFTAGRAREYVTFLTVTPNLTSVYIANHRPLFTHLAVRIGGRYVVAGKMSISPNTTYPSLLEDGRVEYRVALTEDRLPRLEEIRIWGPLQEDADIQVYRRYGEEYGNLTRPDITFTYFQPKPRQAWVWAAVRGPCSVSCGAGLRWVNYSCLDQARKELVETVQCQGSQQPPAWPEACVLEPCPPYWAVGDFGPCSASCGGGLRERPVRCVEAQGSLLKTLPPARCRAGAQQPAVALETCNPQPCPARWEVSEPSSCTSAGGAGLALENETCVPGADGLEAPVTEGPGSVDEKLPAPEPCVGMSCPPGWGHLDATSAGEKAPSPWGSIRTGAQAAHVWTPAAGSCSVSCGRGLMELRFLCMDSALRVPVQEELCGLASKPGSRREVCQAVPCPARWQYKLAACSVSCGRGVVRRILYCARAHGEDDGEEILLDTQCQGLPRPEPQEACSLEPCPPRWKVMSLGPCSASCGLGTARRSVACVQLDQGQDVEVDEAACAALVRPEASVPCLIADCTYRWHVGTWMECSVSCGDGIQRRRDTCLGPQAQAPVPADFCQHLPKPVTVRGCWAGPCVGQGTPSLVPHEEAAAPGRTTATPAGASLEWSQARGLLFSPAPQPRRLLPGPQENSVQSSACGRQHLEPTGTIDMRGPGQADCAVAIGRPLGEVVTLRVLESSLNCSAGDMLLLWGRLTWRKMCRKLLDMTFSSKTNTLVVRQRCGRPGGGVLLRYGSQLAPETFYRECDMQLFGPWGEIVSPSLSPATSNAGGCRLFINVAPHARIAIHALATNMGAGTEGANASYILIRDTHSLRTTAFHGQQVLYWESESSQAEMEFSEGFLKAQASLRGQYWTLQSWVPEMQDPQSWKGKEGT
Take B1: the “cleavage fragment after 2 h reaction with normal plasma at 37 C (SDS-PAGE, western blot with anti-GST antibody)” value in data set [1] is recorded as “a very faint band was produced at the expected position”; in data set [2], “did not give the fragment or was difficult to give the fragment”; in data set [3], “the expected fragment (indicated by the arrowheads in the figure) was clearly yielded”; in data set [4], “the expected fragment (indicated by the arrowheads in the figure) was clearly yielded”; in data set [5] it was “did not give the fragment or was difficult to give the fragment”. In data set [3], the “cleavage fragment after reaction with plasma of TTP patients and family members against normal plasma (SDS-PAGE, western blot with anti-GST antibody)” value is “When each of plasma samples from two patients was reacted with GST-Asp^1596Arg^1668H, there was not detected the fragment which is yielded by the reaction with normal plasma; with plasma of about one-half ADAMTS-13 activity the fragment was yielded at smaller amounts than with the normal plasma”.
